Key:
Cinpanemab (BIIB-054) = assay: SPR
[1] = biological target: human α-syn oligomers (ND Biosciences) (Homo sapiens (Human).) (UniProt P37840); assay: microfluidic diffusional sizing
[2] = biological target: Full length, human α-synuclein, recombinant monomer (Homo sapiens (Human).) (UniProt P37840); assay: microfluidic diffusional sizing
[3] = biological target: α-syn aggregates of MSA patient brain (Homo sapiens (Human).) (UniProt P37840); assay: ELISA
[4] = biological target: α-syn aggregates of PD patient brain (Homo sapiens (Human).) (UniProt P37840); assay: ELISA

Kd (Cinpanemab (BIIB-054))	Kd [1]	Kd [2]	EC50 [3]	EC50 [4]	Substance
> 100 nM					Full length, human α-synuclein, recombinant monomer (from UniProt P37840 1-140) (natural protein)
	0.3 nM	12 nM	0.09 nM	0.16 nM	Lu AF82422 (amlenetug), monospecific wild type human IgG1 (antibody)
